Assay results from publication PMC10460389, “Design of 8-mer peptides that block Clostridioides difficile toxin A in intestinal cells” (Communications Biology, 2023).
Ends that are not written are not given here.

Biological target: T1, Clostridioides difficile Toxin A labelled with Alexa Fluor 594 (Clostridioides difficile, UniProt P16154 1-2710)
T1 construct: also called TcdA-AF594; red fluorescently labeled TcdA
Assay: bead-based fluorescence imaging
Details: both partners purified

T1 sequence (P16154 whole entry, looked up): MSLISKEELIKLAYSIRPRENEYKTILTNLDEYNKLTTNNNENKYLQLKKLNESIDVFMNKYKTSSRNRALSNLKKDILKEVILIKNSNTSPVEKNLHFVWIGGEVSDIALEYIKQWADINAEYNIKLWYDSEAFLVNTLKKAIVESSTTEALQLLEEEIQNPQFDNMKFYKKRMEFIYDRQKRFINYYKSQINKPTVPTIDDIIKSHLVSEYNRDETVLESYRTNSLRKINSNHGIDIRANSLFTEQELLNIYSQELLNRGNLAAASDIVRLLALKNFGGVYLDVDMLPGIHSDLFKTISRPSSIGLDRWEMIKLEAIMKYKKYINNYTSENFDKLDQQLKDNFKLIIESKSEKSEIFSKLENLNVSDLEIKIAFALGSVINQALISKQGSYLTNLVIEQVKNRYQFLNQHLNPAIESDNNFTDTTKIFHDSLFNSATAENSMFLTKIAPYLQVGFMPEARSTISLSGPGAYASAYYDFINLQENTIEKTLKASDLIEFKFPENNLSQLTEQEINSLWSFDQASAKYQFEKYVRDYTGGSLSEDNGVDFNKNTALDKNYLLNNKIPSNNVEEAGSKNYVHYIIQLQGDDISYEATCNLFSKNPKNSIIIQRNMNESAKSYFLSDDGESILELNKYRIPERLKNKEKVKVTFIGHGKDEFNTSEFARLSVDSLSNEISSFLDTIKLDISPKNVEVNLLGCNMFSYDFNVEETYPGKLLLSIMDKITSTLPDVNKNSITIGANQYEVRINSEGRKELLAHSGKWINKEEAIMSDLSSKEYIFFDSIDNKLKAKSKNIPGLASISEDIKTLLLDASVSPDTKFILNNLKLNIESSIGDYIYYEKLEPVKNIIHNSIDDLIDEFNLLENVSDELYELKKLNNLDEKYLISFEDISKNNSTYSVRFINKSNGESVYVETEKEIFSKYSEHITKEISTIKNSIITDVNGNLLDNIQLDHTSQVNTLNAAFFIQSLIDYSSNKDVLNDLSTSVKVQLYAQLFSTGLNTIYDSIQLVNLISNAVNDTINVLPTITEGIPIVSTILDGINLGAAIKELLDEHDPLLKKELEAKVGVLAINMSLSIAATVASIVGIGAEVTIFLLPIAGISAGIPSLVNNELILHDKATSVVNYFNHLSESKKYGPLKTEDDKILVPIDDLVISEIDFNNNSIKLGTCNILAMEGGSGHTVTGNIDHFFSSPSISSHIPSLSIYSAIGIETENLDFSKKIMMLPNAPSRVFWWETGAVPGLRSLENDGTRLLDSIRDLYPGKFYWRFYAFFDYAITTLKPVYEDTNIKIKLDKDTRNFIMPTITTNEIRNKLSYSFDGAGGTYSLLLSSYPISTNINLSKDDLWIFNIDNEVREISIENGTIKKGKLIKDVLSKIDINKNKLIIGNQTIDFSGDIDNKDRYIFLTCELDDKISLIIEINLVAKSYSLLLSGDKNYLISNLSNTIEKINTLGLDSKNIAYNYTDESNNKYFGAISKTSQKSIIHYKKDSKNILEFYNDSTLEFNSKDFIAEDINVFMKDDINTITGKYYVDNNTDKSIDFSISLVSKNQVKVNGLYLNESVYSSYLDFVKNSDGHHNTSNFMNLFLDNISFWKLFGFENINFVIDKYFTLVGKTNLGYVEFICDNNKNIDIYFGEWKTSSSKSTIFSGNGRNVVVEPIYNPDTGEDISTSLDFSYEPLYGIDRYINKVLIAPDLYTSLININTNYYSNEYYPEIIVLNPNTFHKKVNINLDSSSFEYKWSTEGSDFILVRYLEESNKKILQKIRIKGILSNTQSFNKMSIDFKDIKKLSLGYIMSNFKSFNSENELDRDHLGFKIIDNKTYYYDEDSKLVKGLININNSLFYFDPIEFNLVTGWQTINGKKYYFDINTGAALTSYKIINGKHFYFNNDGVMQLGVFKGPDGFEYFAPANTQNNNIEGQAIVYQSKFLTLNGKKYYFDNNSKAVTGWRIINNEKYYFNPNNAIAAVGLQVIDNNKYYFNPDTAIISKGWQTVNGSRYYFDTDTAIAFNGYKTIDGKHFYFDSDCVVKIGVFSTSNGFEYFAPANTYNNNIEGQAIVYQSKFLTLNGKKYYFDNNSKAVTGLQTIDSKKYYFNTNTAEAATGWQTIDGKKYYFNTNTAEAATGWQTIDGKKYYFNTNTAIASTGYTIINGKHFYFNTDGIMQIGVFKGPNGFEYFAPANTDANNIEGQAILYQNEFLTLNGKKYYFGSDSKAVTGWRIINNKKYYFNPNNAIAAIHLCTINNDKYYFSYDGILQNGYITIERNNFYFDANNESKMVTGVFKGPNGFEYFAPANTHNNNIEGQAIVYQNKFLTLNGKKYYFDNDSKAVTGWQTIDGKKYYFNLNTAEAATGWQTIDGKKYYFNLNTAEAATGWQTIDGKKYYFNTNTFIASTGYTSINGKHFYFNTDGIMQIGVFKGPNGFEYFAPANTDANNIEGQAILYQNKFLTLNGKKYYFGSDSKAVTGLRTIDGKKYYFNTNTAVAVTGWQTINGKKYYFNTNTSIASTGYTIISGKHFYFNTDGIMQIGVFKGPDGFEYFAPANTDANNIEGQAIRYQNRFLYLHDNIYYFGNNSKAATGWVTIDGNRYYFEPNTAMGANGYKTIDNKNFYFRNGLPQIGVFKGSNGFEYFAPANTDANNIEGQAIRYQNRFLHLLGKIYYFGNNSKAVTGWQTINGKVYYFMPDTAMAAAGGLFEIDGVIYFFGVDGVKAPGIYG

Binder	binding result
QDWMRRHWGSG (also: on ChemMatrix Aminomethyl bead via GSG linker) [SA2 on ChemMatrix Aminomethyl bead (GSG linker)]	binds
MFWEHRHRGSG (also: on ChemMatrix Aminomethyl bead via GSG linker) [SA4 on ChemMatrix Aminomethyl bead (GSG linker)]	binds
